For this data set, the target named is HMG I/Y (recombinant HMG I) (UniProt P17096 1-107). Nature of the data set: EMSA. Background: A gel shift assay detects complexes by their altered migration in electrophoresis.
Sequence of HMG I/Y (recombinant HMG I) (P17096 whole entry): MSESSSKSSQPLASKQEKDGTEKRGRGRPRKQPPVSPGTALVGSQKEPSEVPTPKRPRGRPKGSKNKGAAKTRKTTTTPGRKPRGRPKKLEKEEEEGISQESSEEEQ

B1: MOCT (mutant octamer) (dsDNA)
DNA 1: AGAGTAATTGATGGGCATTTTAATGG
DNA 2: CCATTAAAATGCCCATCAATTACTCT
With B1, the binding result is reported as “no binding”.

B2: MIS (mutant D box) (dsDNA)
DNA 1: ATCTCAAAATATGGGTCTGATTGGCCA
DNA 2: TGGCCAATCAGACCCATATTTTGAGAT
For the molecule B2, the binding result is on record as “no binding”.

The values above are taken from publication PMC2192141.
